According to US20210017289A1 (AbbVie / Abbott, published 2021):
“And” between values parts separate entries of the source, which are not always exact repeats. Equal entries are not always repeated. Where two headings read alike, the source gives them in different places.

Columns and labels:
[1] = target: T1, human OX40 expressed on cells (human, UniProt P43489 29-277); experiment: cell-based or functional assay
T1 sequence: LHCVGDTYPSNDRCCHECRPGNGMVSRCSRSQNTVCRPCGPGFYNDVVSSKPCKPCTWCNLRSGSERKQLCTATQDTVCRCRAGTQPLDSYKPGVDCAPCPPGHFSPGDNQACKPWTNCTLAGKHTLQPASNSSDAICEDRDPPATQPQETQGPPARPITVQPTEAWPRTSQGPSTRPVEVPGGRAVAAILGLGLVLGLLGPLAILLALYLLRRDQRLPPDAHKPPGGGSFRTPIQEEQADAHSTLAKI

[2] = target: T2, recombinant soluble human OX40 ECD (residues 1-216) (human, UniProt P43489 29-216); experiment: SPR (Biacore T200, 25 °C), antibody captured by anti-Fc, OX40 ECD as analyte
T2 construct: Purchased from Creative Biomart and further purified by gel filtration; also called recombinant extracellular domain of human OX40
T2 sequence: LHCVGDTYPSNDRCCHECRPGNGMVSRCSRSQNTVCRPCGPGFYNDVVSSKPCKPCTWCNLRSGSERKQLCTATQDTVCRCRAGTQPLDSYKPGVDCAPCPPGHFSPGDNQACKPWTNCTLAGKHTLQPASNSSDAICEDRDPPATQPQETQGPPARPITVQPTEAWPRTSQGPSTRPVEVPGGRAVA
Experimental: The binding kinetics of an anti-OX40 antibody to recombinant soluble OX40 ECD (extracellular domain) were determined by surface plasmon resonance-based measurements made on a Biacore T200 instrument (GE Healthcare) at 25° C. using an anti-Fc capture assay approach. Recombinant extracellular domains (ECDs) of human OX40 (residues 1-216) and rhesus macaque OX40 (residues 28-214) were purchased (Creative Biomart) and further purified by gel filtration using Superdex200 (GE Healthcare) in 10 mM 4-(2-hydroxyethyl)-1-piperazineethanesulfonic acid (HEPES), pH 7.4, 150 mM NaCl, 3 mM ethylenediaminetetraacetic acid (EDTA). Rhesus macaque (Macaca mulatta) OX40 is identical to cynomolgus monkey (Macaca fascicularis) OX40 (SEQ ID NO:2) at the amino acid level. Chip preparation and binding kinetic measurements were made in the assay buffer HBS-EP+(10 mM HEPES, pH 7.4, 150 mM NaCl, 3 mM EDTA, 0.05% Tween 20). For anti-Fc capture chip preparation, approximately 2000 Resonance Units (RU) of goat anti-human IgG Fc polyclonal antibody (Thermo Fisher Scientific Inc.), diluted to 25 μg/mL in 10 mM sodium acetate (pH 4.5), was directly immobilized across a CMS biosensor chip using a standard amine coupling kit according to manufacturer's instructions and procedures. Unreacted moieties on the biosensor surface were blocked with ethanolamine. For binding kinetics measurements each assay cycle consisted of the following steps: 1) capture of test anti-OX40 antibody on test surface only; 2) analyte injection (OX40 ECD or buffer only) over both reference and test surface, 240 μL at 80 μL/min, after which the dissociation was monitored for 900 seconds at 80 μL/min; 3) regeneration of capture surface by 10 mM Glycine-HCl, pH 1.5 injections over both reference and test surface. During the assay, all measurements were referenced against the capture surface alone (i.e., with no captured test antibody) and buffer-only injections were used for double referencing. OX40 injections ranged in concentration from 900 nM or 300 nM to 11.11 nM in a randomized 9- or 3-fold dilution series, respectively. Data were processed and fitted globally to a 1:1 binding model using Biacore T200 Evaluation software to determine the binding kinetic rate constants, kₐ (M⁻¹s⁻¹) and kd (s¹), and the equilibrium dissociation constant KD (M).

[3] = target: T1, human OX40 expressed on cells; experiment: cell-based or functional assay; remark: listed apart in the source
[4] = target: T1, human OX40 expressed on cells; experiment: flow cytometry on Jurkat NF-κB reporter cells expressing human OX40
Experimental: A Jurkat NF-κB reporter cell line expressing human OX40 protein was cultured in DMEM containing 10% FBS and penicillin/streptomycin (pen/strep). For the binding assay, each cell line was resuspended at 5 million cells per mL. 50 μL (250,000 cells)/well were transferred to each well of a 500 μL polypropylene 96-well plate (Nunc). A 2× stock of test anti-OX40 antibody or isotype control mAb was prepared in a separate dilution plate at 666, 333, 111, 37.03, 12.34, 4.11, 0.457, 0.152, 0.0508, 0.0169, 0.00564 nM in culture media. Each antibody (50 μL/well) was transferred into respective wells of the assay plate. Cells were incubated with the test anti-OX40 antibody or isotype control antibodies for 30 minutes at 4° C. and washed twice with 250 μL/well of PBS by centrifuging at 800 rpm for 3 minutes. Bound antibody was detected with Cy5-Donkey anti-human IgG (H+L) (Jackson ImmunoResearch) diluted to 2 μg/mL (50 μL/well) in PBS for 30 minutes at 4° C. Cells were washed once with 250 μL/well of PBS, resuspended in PBS containing 1% Formaldehyde and analyzed on a dual laser FACSCalibur (Becton Dickinson).

[5] = target: T1, human OX40 expressed on cells; experiment: flow cytometry competition on human OX40-expressing Jurkat cells; OX40L titrated against 0.2 µg/mL Hu3738 (competitor)
[6] = target: T1, human OX40 expressed on cells; experiment: competition by flow cytometry on Jurkat-NF-κB-huOX40 cells; competitor: ALEXA FLUOR 647-labeled Hu3738 at 2 µg/mL
Experimental: Analysis was performed by flow cytometry.

[7] = target: T1, human OX40 expressed on cells; experiment: cell-based or functional assay; remark: listed apart in the source

## Isotype control antibody
[1]
  EC50 With Cross-linker (nM), NF-κB signaling: > 100 mg/L
  EC50 Without Cross-linker (nM), NF-κB signaling: > 100 mg/L

B1: 18D8 (antibody, human IgG1, V domains shown)
VH: EVQLVESGGGLVQPGRLSRLSCAASGFTFDDYAMHWVRQAPGKGLEWVSGISWNSGSIGYADSVKGRFTISRENAKNSLYLQMNSLRAEDTALYYCAKDQSTADYYFYYGMDVWGQGTTVTVSS
VL: EIVVTQSPATLSLSPGERATLSCRASQSVSSYLAWYQQKPGQAPRLLIYDASNRATGIPARFSGSGSGTDFTLTISSLEPEDFAVYYCQQRSNWPTFGQGTKVEIK
notes: also called literature anti-OX40 antibody 18D8
[2]
  Kd: 9.1 nM
  koff: 0.11 s⁻¹
[3]
  EC50 With Cross-linker (nM), NF-κB signaling: 0.5 nM
  EC50 Without Cross-linker (nM), NF-κB signaling: > 100 mg/L
[4]
  EC50: 0.258 mg/L

B2: soluble human OX40 ligand (OX40L) (ligand)
chain: QVSHRYPRIQSIKVQFTEYKKEKGFILTSQKEDEIMKVQNNSVIINCDGFYLISLKGYFSQEVNISLHYQKDEEPLFQLKKVRSVNSLMVASLTYKDKVYLNVTTDNTSLDDFHVNGGELILIHQNPGEFCVL
notes: also called CD252; TNFSF4
[5]
  IC50: 0.067 nM and 0.01 µg/mL

B3: Hu3739 (antibody, V domains shown)
VH: EVQLVQSGAEVKKPGSSVKVSCKASGFNIKDTYMHWVRQAPGQGLEWIGRIDPANGNTKYDPKFQGRATITADTSTNTAYMELSSLRSEDTAVYYCARGGPAWFVYWGQGTLVTVSS
VL: DIQMTQSPSSLSASVGDRVTITCRASQDISNYLNWYQQKPGKAPKLLIYYTSRLRSGLPSRFSGSGSGTDYTLTISSLQPEDFATYYCQQGNTLPWTFGGGTKVEIKR
notes: Humanized antibody; also called Hu3739 VH.1b / Hu3739 VL.1b
[2]
  Kd: 360 nM
  koff: 0.016 s⁻¹

B4: Hu3741 (antibody, V domains shown)
VH: EVQLVESGGGLVQPGGSLRLSCAVSGFSLTSYGVHWVRQAPGKGLEWLGVIWSGGSTDYNAAFISRLTISKDNSKSTVYLQMNSLRAEDTAVYYCAREEFDYWGQGTTVTVSS
VL: DIQMTQSPSSLSASVGDRVTITCRASQDISNYLNWFQQKPGKAPKLLIYYTSRLHSGVPSRFSGSGSGTDYTLTISSLQPEDFATYYCQQGYTLPPTFGGGTKVEIKR
notes: Humanized antibody; also called Hu3741 VH.2b / Hu3741 VL.1c
[2]
  Kd: 3000 nM
  koff: 0.31 s⁻¹

B5: 119-122 (antibody, human IgG1, V domains shown)
VH: EVQLVESGGGLVQPGGSLRLSCAASEYEFPSHDMSWVRQAPGKGLELVAAINSDGGSTYYPDTMERRFTISRDNAKNSLYLQMNSLRAEDTAVYYCARHYDDYYAWFAYWGQGTMVTVSS
VL: EIVLTQSPATLSLSPGERATLSCRASKSVSTSGYSYMHWYQQKPGQAPRLLIYLASNLESGVPARFSGSGSGTDFTLTISSLEPEDFAVYYCQHSRELPLTFGGGTKVEIK
[3]
  EC50 With Cross-linker (nM), NF-κB signaling: 0.34 nM
  EC50 Without Cross-linker (nM), NF-κB signaling: > 100 mg/L

B6: 106-222 (antibody, human IgG1, V domains shown)
VH: QVQLVQSGSELKKPGASVKVSCKASGYTFTDYSMHWVRQAPGQGLKWMGWINTETGEPTYADDFKGRFVFSLDTSVSTAYLQISSLKAEDTAVYYCANPYYDYVSYYAMDYWGQGTTVTVSS
VL: DIQMTQSPSSLSASVGDRVTITCKASQDVSTAVAWYQQKPGKAPKLLIYSASYLYTGVPSRFSGSGSGTDFTFTISSLQPEDIATYYCQQHYSTPRTFGQGTKLEIK
notes: 2013/0280275
[3]
  EC50 With Cross-linker (nM), NF-κB signaling: 0.63 nM
  EC50 Without Cross-linker (nM), NF-κB signaling: > 100 mg/L
[6]
  IC50 (read off the curve): ~1 mg/L

B7: 1A7 (antibody, human IgG1, V domains shown)
VH: EVQLQQSGPELVKPGASVKISCKASGYTFTDSYMSWVKQSHGKTLEWIGDMYPDNGDSSYNQKFREKVTLTVDKSSTTAYMEFRSLTSEDSAVYYCVLAPRWYFSVWGTGTTVTVSS
VL: DIQMTQTTSSLSASLGDRVTISCRASQDISNYLNWYQQKPDGTVKLLIYYTSRLRSGVPSRFSGSGSGKDYFLTISNLEQEDVAAYFCQQGHTLPPTFGGGTKLEIK
notes: 2015/0307617; also called literature anti-OX40 antibody 1A7
[7]
  EC50 With Cross-linker (nM), NF-κB signaling: 0.066 nM
  EC50 Without Cross-linker (nM), NF-κB signaling: > 100 mg/L
[6]
  IC50 (read off the curve): ~0.6 mg/L
